In the supplement of paper PMC10724198:
± gives the standard deviation of the averaged measurements.

These sequences were tested on Saccharomyces cerevisiae (assay: protein stability index of tFT-peptide fusion (C-terminal peptide) (PSI (0-1 scale)); higher = more stable (slower turnover)). Details: genetic background: wild type; temperature: 30 C.
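Also: PSI is a weighted mean of sequencing reads over stability bins, variants kept only with over 10 reads, mCherry proximal and sfGFP distal, peptide attached via GGGS linker.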

Sequence	protein stability index
NVACNGKGEQVL	0.7268 ± 0.0011
SARVVCSSCFPM	0.668 ± 0.017
EKMDIEKKVEGS	0.812 ± 0.12
PFLPSPHPSPSS	0.713 ± 0.022
VHLYGRTAGRGV	0.816 ± 0.06
GLRSVQISHIRQ	0.694 ± 0.012
YKTCKEKKITNR	0.704 ± 0.014
SVLPSVAGIKSG	0.593 ± 0.046
VCPSPSTPPGLF	0.695 ± 0.019
GACPARGRFLRR	0.753 ± 0.086
FPLHSSLSGPPC	0.737 ± 0.0083
ILFVTASSFSPP	0.67 ± 0.045
LVVVRTGPPRWY	0.669 ± 0.0073
RRRGRAEREPSS	0.689 ± 0.05
LGGWAGLRCGGF	0.704 ± 0.026
VRSCCFFLDAVW	0.665 ± 0.029
GSMWCLTPSAGL	0.7 ± 0.034
RKRKIKQYITTT	0.725 ± 0.043
KTKKNKQKSKKK	0.705 ± 0.034
SLCRQHSVFSLA	0.653 ± 0.044
PLAPPFSPPPPP	0.645 ± 0.0082
VVRALSTQVCLP	0.645 ± 0.098
PPPHPHLPPHSD	0.69 ± 0.06
LGCVDRMGRVFG	0.704 ± 0.079
PPLPPAPPPSPP	0.652 ± 0.029
DNLFSPTLLWEL	0.6674 ± 0.0034

Sequence	protein stability index
FPFPTLSDLRPT	0.698 ± 0.036
RIGICSTNTSLQ	0.722 ± 0.067
VLGVFFGSVEGC	0.68 ± 0.05
EILQDRAVSKGR	0.697 ± 0.039
VQSGIRLIFGRA	0.545 ± 0.014
PDFPPSRTPPEF	0.624 ± 0.022
LSALSLFLFFLR	0.58 ± 0.046
SHLPPPSRFSSD	0.677 ± 0.077
GGVRGVRGRGVG	0.639 ± 0.049
ILCASDLNRPCL	0.697 ± 0.04
LLSFLPPVFLLL	0.514 ± 0.014
VRSLSSPPAPAT	0.736 ± 0.038
PTARGACRAPRS	0.667 ± 0.037
LKKMIGPLRAGE	0.686 ± 0.076
LGGICPLYDLVF	0.667 ± 0.076
GWWWGGGGAWSG	0.718 ± 0.071
IIRINSKMGSRK	0.725 ± 0.0078
LLFVVSLPSFPC	0.636 ± 0.13
RGGLDQVHKGFR	0.711 ± 0.086
KKKKQKKKYKKT	0.695 ± 0.095
FYREFNSSSVCT	0.788 ± 0.24
TPPVPPHPRSLL	0.774 ± 0.11
GSVMDMTRGGVS	0.646 ± 0.097
KGLLSITLRNLD	0.63 ± 0.049
QGVLRAEAVDKG	0.622 ± 0.019
VVRFEGYVLGWG	0.647 ± 0.072

Sequence	protein stability index
AVRCEEKGLLLS	0.674 ± 0.017
FSLSRLCFCFRS	0.529 ± 0.024
PVTALIASLILR	0.611 ± 0.031
DSPASHWSVKSL	0.638 ± 0.043
KAGVWLWGGGGG	0.678 ± 0.069
SLGLSRSRLPKN	0.682 ± 0.043
LVFAAGCVGGVR	0.633 ± 0.021
AQLGQTCDRDGM	0.79 ± 0.17
ASCQRCGSVLDL	0.697 ± 0.014
SVYLPLGVLQCI	0.577 ± 0.032
PVGEGAGELGGG	0.642 ± 0.034
RTPQSPRVSVRN	0.6586 ± 0.0027
PASPRDPLPRLP	0.764 ± 0.12
WREGKTCTRKGG	0.57 ± 0.047
LNNLTVVDVAGL	0.69 ± 0.017
PFQPPSLIPSRH	0.746 ± 0.026
GAGWCDGGRGGV	0.6747 ± 0.0014
KYLPSVVYIYRL	0.531 ± 0.023
RKMRNGRKRKKK	0.62 ± 0.025
VLRGVNGLRCRS	0.6863 ± 0.0046
RRESTRSRWYEG	0.762 ± 0.14
VFGLVGWCAGDC	0.715 ± 0.094
GGGGLGWWEWDR	0.736 ± 0.071
NLCPLPPPLLTS	0.675 ± 0.035
CVAGHPPASPPP	0.712 ± 0.059
SLLPPRLPPPPF	0.633 ± 0.016

Sequence	protein stability index
IPLPMLLHLPRA	0.684 ± 0.019
AFAWERPCEIRF	0.6984 ± 0.0063
GVDGLLRVYVME	0.674 ± 0.029
AVWLGVGGRFVG	0.781 ± 0.053
CGSWAGRAWPGR	0.755 ± 0.014
RLFSYLSTLSFI	0.727 ± 0.053
PPFASPSPLPPP	0.7006 ± 0.0069
YVRLSTLCGSAY	0.58 ± 0.036
AKSGEVIGSWFG	0.67127 ± 0.00043
AGLSGRGFLRGA	0.6923 ± 0.0062
CNVGAIVGLVWV	0.6002 ± 0.0019
RAVPLLPRVLFW	0.6819 ± 0.0047
FFGSFVFSLLFY	0.6025 ± 0.0047
FPPSDPAPTLPP	0.749 ± 0.088
YYRKATFSPMVQ	0.684 ± 0.072
EERNSVRGYTES	0.734 ± 0.028
TGWRGVLGLGPG	0.674 ± 0.02
PSPPPHPIHPMA	0.754 ± 0.18
VWFGLLTTVNID	0.5657 ± 0.0048
AVGFFAASVPGF	0.7293 ± 0.0069
PLSTCLAARCPL	0.725 ± 0.085
LFAHSLRLSFAC	0.7054 ± 0.0031
ALVSRGPCVFGW	0.662 ± 0.045
VPRTFQDLLPAP	0.707 ± 0.04
WTFVRTPERSEI	0.719 ± 0.0089
VFFLSYGPFLAM	0.5963 ± 0.0038

Sequence	protein stability index
AIALASTNLMAG	0.713 ± 0.097
PPPPPPPLPPPP	0.667 ± 0.015
ERCVCLRGVSSG	0.708 ± 0.011
CLATVFWHHVKF	0.63 ± 0.058
VCLRRYGVMADV	0.628 ± 0.015
GLIGLVHFWRGT	0.655 ± 0.035
FSLPPNPQPKLL	0.741 ± 0.07
PPTFLLRSAPSL	0.669 ± 0.043
ECPYFSHTPVAV	0.644 ± 0.032
IFPSIPTLLPPS	0.701 ± 0.041
PDASRRVPPPPD	0.663 ± 0.066
WCRGVGSWRGRG	0.688 ± 0.008
CSTFFVRSLSFI	0.63 ± 0.034
GTVEGAVQGLVE	0.718 ± 0.045
RSGISFGIWVCF	0.586 ± 0.048
GRLGRMWRCDPR	0.658 ± 0.032
PRPLPSPPHPRP	0.71 ± 0.026
KELENLHDNEGN	0.616 ± 0.019
WDGWPTRWGGTG	0.705 ± 0.017
CVFGSHCRVLVV	0.556 ± 0.028
DDSVGKLFYCLF	0.7 ± 0.03
GGLWAAAGKARV	0.692 ± 0.026
GGVRGGAAEGAV	0.751 ± 0.076
GGTSCLLSTAGD	0.653 ± 0.079
TPSSPSARHPPP	0.715 ± 0.036
GVGGEIGRGGEY	0.676 ± 0.035

Sequence	protein stability index
APNPYHKPPSLR	0.701 ± 0.11
ACLLYSGFSTEL	0.654 ± 0.0066
GYSSPPLITIPH	0.659 ± 0.023
PLPSAPVPPSAS	0.71002 ± 0.0003
YNGNSHQTHRHP	0.74 ± 0.022
TWQWGAFNRIKG	0.68 ± 0.13
TVGRILEVSRRG	0.66 ± 0.025
LFVAFGAAESFE	0.67 ± 0.098
FSRVRNVLGLGG	0.73 ± 0.12
NKEYSLIIKTHN	0.61529 ± 0.00011
FASVVADVFQFP	0.772 ± 0.088
CFLCLAYGFFSF	0.571 ± 0.03
LGASPTWGPARS	0.656 ± 0.016
QIRNNKPYSPSK	0.742 ± 0.0061
RKKKKKLKKKTE	0.66 ± 0.082
FLVCFPFALFGA	0.495 ± 0.052
PLEKASMTLWGR	0.691 ± 0.05
TRLLAWGVVGLF	0.633 ± 0.086
VPFYSPPCYSCL	0.628 ± 0.04
GSTSWAWITLPH	0.747 ± 0.0077
RPYLARQTTAPS	0.6575 ± 0.0033
GGIPINVLPGCR	0.739 ± 0.15
APSPPSVPSPPP	0.675 ± 0.0088
GGSDLLIGFWPC	0.716 ± 0.027
KRFDKEWEIWRS	0.733 ± 0.023
SPFPSPVLPPHT	0.7153 ± 0.006

Sequence	protein stability index
WSSGDVRRAKEW	0.719 ± 0.078
KKETRRTNPEHK	0.765 ± 0.11
PVCASVSLTSSP	0.697 ± 0.024
LGGSVAIWSWNP	0.763 ± 0.12
VWNLELFFTLAT	0.6331 ± 0.001
GRRLSDTSIFSS	0.679 ± 0.087
PPCPPPPAPPPP	0.687 ± 0.044
GHSRSTFPWLVI	0.79 ± 0.095
EGEGPRGNGSGA	0.648 ± 0.043
WYTPDCLHCGPA	0.688 ± 0.013
GEKQVDGGDGQR	0.6985 ± 0.0012
VGGTSWGIEKSS	0.649 ± 0.052
YQLRRGDSSLTE	0.677 ± 0.085
HVGYLIMVYRGR	0.646 ± 0.072
STGAVREFRFFA	0.643 ± 0.053
VCPILMARHCVE	0.691 ± 0.057
GMSRVSDRRWGS	0.681 ± 0.013
PPRPSLIPPLPS	0.61 ± 0.016
ALGNFPLGASVS	0.676 ± 0.035
RVVYANSRVSDN	0.6479 ± 0.0055
SKYKITIYWREE	0.568 ± 0.0096
CIALLTPPCIIF	0.72 ± 0.065
PTPGSSPLPATL	0.687 ± 0.0075
PPAHPPPRLHPP	0.541 ± 0.018
VCLATPPSTVTP	0.619 ± 0.065
PRLLPPDPRHAP	0.7002 ± 0.0032

Sequence	protein stability index
CGGWTRRSGDMV	0.678 ± 0.042
GKKKKRIDTKYK	0.713 ± 0.15
YPPPPPSPPSTV	0.722 ± 0.027
TAVGRKWCGRVL	0.695 ± 0.028
VRHSLFPCPSPT	0.714 ± 0.035
FLLVPSPPSFTH	0.715 ± 0.12
PVSPAHLRRSLL	0.775 ± 0.031
LLEKGHTRGLCF	0.663 ± 0.017
MCVGSLMHKLRW	0.6988 ± 0.0043
TRGAPHHSSGRG	0.693 ± 0.033
GFFGDFIVFDFS	0.777 ± 0.022
PHNPFPTRTPPP	0.71 ± 0.039
FFWFIASTNFSS	0.609 ± 0.015
PLSTFSLSSFTV	0.691 ± 0.045
KGGWGMRGVRGG	0.672 ± 0.0046
WVKTLEKEDHVI	0.759 ± 0.21
LLLPPAPPPPLS	0.621 ± 0.095
LFPAAPAPPPPP	0.658 ± 0.028
KEEIRNKIKTIK	0.6809 ± 0.0063
PSPPPRPPLSPP	0.715 ± 0.052
